The values below come from PMC5496861, “Yeast Cip1 is activated by environmental stress to inhibit Cdk1–G1 cyclins via Mcm1 and Msn2/4”.

This series concerns the target T1, GST-Msn2(401-704) (Saccharomyces cerevisiae, UniProt P33748 401-704).
T1 sequence: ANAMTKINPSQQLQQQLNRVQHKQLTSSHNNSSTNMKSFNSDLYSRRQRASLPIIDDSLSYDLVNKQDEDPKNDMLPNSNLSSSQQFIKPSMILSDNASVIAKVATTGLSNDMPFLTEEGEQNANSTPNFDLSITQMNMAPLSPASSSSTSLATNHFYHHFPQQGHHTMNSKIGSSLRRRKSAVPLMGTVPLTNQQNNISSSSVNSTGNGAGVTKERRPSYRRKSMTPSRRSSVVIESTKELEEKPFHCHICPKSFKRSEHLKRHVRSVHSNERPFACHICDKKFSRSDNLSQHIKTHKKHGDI
The series can be described thus: EMSA; 100 ng protein, 32P-end-labeled ds oligos, 4% nondenaturing polyacrylamide gel; buffer, salt, pH and temperature not given (as previously described, ref 64). Particulars: protein: recombinant; tags: N-terminal GST (pGEX4T-1); label: 32P end label; blunt. (In general: A gel shift assay detects complexes by their altered migration in electrophoresis.)

B1: STRE II (dsDNA)
DNA 1: GTATTTTCCTCCCCCTAGCTTCAAC
DNA 2: GTTGAAGCTAGGGGGAGGAAAATAC
Regarding B1, the binding result was “binds”.

B2: STRE I (dsDNA)
DNA 1: GGAACTCGCGCAGGGGGAAGACATA
DNA 2: TATGTCTTCCCCCTGCGCGAGTTCC
Regarding B2, the binding result was “binds”.
